Data reported in the RNAGym collection of RNA variant scans (doi:10.7554/elife.80360).

B1: CPEB3 Ribozyme (parent)
chain: GGGGGCCACAGCAGAAGCGUUCACGUCGCGGCCCCUGUCAGAUUCUGGUGAAUCUGCGAAUUCUGCUGU

Variants of: B1
Assay: self-cleavage, relative activity (ratio to wild type); higher = more cleavage; co-transcriptional

| Variant | self-cleavage |
| --- | --- |
| G37C U46C | 0.174 |
| G37C U49C | 0.286 |
| G37C U49G | 0.234 |
| G37C U53A | 0.256 |
| G37C U55A | 0.25 |
| G37C U55C | 0.267 |
| G37C U55G | 0.236 |
| G37C U61A | 0.201 |
| G37C U61C | 0.223 |
| G37C U61G | 0.282 |
| G37C U62A | 0.212 |
| G37C U62G | 0.157 |
| G37C U64G | 0.205 |
| G37C U67C | 0.282 |
| G37C U69G | 0.375 |
| G37U | 0.319 |
| G37U A40C | 0.205 |
| G37U A40G | 0.366 |
| G37U A42C | 0.256 |
| G37U A42G | 0.234 |
| G37U A42U | 0.246 |
| G37U A52G | 0.282 |
| G37U A52U | 0.317 |
| G37U A59U | 0.197 |

| Variant | self-cleavage |
| --- | --- |
| G37U C39U | 0.186 |
| G37U C45G | 0.286 |
| G37U C45U | 0.316 |
| G37U C54A | 0.227 |
| G37U C54G | 0.168 |
| G37U C57A | 0.174 |
| G37U C57U | 0.264 |
| G37U C63A | 0.239 |
| G37U C63G | 0.312 |
| G37U C63U | 0.271 |
| G37U C66A | 0.267 |
| G37U C66G | 0.201 |
| G37U G41A | 0.244 |
| G37U G41C | 0.139 |
| G37U G47C | 0.352 |
| G37U G47U | 0.365 |
| G37U G48A | 0.388 |
| G37U G48U | 0.322 |
| G37U G50U | 0.379 |
| G37U G56A | 0.28 |
| G37U G56C | 0.206 |
| G37U G56U | 0.224 |
| G37U G58C | 0.279 |
| G37U G58U | 0.362 |

| Variant | self-cleavage |
| --- | --- |
| G37U G65A | 0.234 |
| G37U G65U | 0.265 |
| G37U G68A | 0.438 |
| G37U G68C | 0.42 |
| G37U U38A | 0.321 |
| G37U U38C | 0.239 |
| G37U U38G | 0.254 |
| G37U U43A | 0.209 |
| G37U U43C | 0.236 |
| G37U U44A | 0.213 |
| G37U U44G | 0.231 |
| G37U U46A | 0.416 |
| G37U U46C | 0.292 |
| G37U U46G | 0.263 |
| G37U U49A | 0.258 |
| G37U U49C | 0.335 |
| G37U U49G | 0.327 |
| G37U U53C | 0.252 |
| G37U U53G | 0.206 |
| G37U U55C | 0.214 |
| G37U U55G | 0.173 |
| G37U U61C | 0.21 |
| G37U U61G | 0.152 |
| G37U U62A | 0.227 |

| Variant | self-cleavage |
| --- | --- |
| G37U U62G | 0.332 |
| G37U U64A | 0.269 |
| G37U U64C | 0.283 |
| G37U U67A | 0.293 |
| G37U U67C | 0.317 |
| G37U U67G | 0.304 |
| G37U U69C | 0.533 |
| U38A A40U | 0.692 |
| U38A A42U | 0.817 |
| U38A A51U | 0.84 |
| U38A A52G | 0.89 |
| U38A A52U | 0.856 |
| U38A A59C | 0.497 |
| U38A A59G | 0.939 |
| U38A A59U | 0.462 |
| U38A A60C | 0.418 |
| U38A A60G | 0.563 |
| U38A C39U | 0.888 |
| U38A C45G | 0.902 |
| U38A C54U | 0.911 |
| U38A C57A | 0.368 |
| U38A C57U | 0.35 |
| U38A C63A | 0.663 |
| U38A C63G | 0.67 |

| Variant | self-cleavage |
| --- | --- |
| U38A C63U | 0.877 |
| U38A C66A | 0.721 |
| U38A C66G | 0.764 |
| U38A C66U | 0.917 |
| U38A G41C | 0.675 |
| U38A G47A | 0.916 |
| U38A G47C | 0.937 |
| U38A G47U | 1 |
| U38A G48A | 0.938 |
| U38A G48C | 0.887 |
| U38A G48U | 0.957 |
| U38A G50C | 0.911 |
| U38A G50U | 0.894 |
| U38A G56A | 0.922 |
| U38A G58A | 0.848 |
| U38A G58U | 0.936 |
| U38A G65C | 0.578 |
| U38A G65U | 0.633 |
| U38A G68C | 0.927 |
| U38A G68U | 0.939 |
| U38A U43C | 0.9 |
| U38A U43G | 0.8 |
| U38A U44A | 0.854 |
| U38A U44G | 0.875 |

| Variant | self-cleavage |
| --- | --- |
| U38A U46G | 0.943 |
| U38A U49A | 0.846 |
| U38A U49C | 0.899 |
| U38A U49G | 0.962 |
| U38A U53C | 0.811 |
| U38A U55A | 0.779 |
| U38A U55C | 0.846 |
| U38A U55G | 0.758 |
| U38A U61A | 0.782 |
| U38A U61C | 0.507 |
| U38A U61G | 0.637 |
| U38A U62A | 0.648 |
| U38A U62C | 0.594 |
| U38A U64C | 0.776 |
| U38A U67A | 0.941 |
| U38A U67G | 0.9 |
| U38A U69A | 0.98 |
| U38C A40C | 0.77 |
| U38C A40G | 0.842 |
| U38C A40U | 0.889 |
| U38C A42C | 0.885 |
| U38C A42G | 0.938 |
| U38C A42U | 0.827 |
| U38C A51C | 0.87 |

| Variant | self-cleavage |
| --- | --- |
| U38C A51G | 0.88 |
| U38C A52C | 0.921 |
| U38C A59U | 0.316 |
| U38C A60C | 0.293 |
| U38C A60G | 0.78 |
| U38C C39A | 0.299 |
| U38C C39G | 0.448 |
| U38C C39U | 0.702 |
| U38C C45A | 0.885 |
| U38C C45U | 0.922 |
| U38C C54G | 0.643 |
| U38C C54U | 0.948 |
| U38C C57G | 0.369 |
| U38C C63U | 0.876 |
| U38C C66A | 0.687 |
| U38C C66G | 0.717 |
| U38C G41A | 0.736 |
| U38C G41C | 0.773 |
| U38C G47A | 0.933 |
| U38C G47U | 0.925 |
| U38C G48A | 0.963 |
| U38C G50A | 0.948 |
| U38C G50C | 0.942 |
